Test results from patent US20240181073A1, “Antibody-Drug Conjugates Comprising an Anti-BCMA Antibody” (Sorrento Therapeutics, Inc., priority 2021, published 2024).
Where a chain is given by its changes, count along the chain named.

Tests used:
[1] = target: T1, Human BCMA (B Cell Maturation Antigen) (human, UniProt Q02223 1-184); test: cell-based or functional assay
T1 sequence: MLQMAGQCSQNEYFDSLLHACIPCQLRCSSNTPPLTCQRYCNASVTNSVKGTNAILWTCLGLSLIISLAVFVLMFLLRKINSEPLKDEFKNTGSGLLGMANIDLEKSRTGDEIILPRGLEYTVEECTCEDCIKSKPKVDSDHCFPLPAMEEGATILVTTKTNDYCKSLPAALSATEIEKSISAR

[2] = test system: K562 (BCMA −) cells; test: In vitro cell viability assay (Cell Titer-Glo 2.0), Example B1; assay type: cell-based, human; settings: Table 4; 5-day assays; AB1 clone; read-out: EC50 Values, Cell Line K562
Description: The in vitro efficacies of ADCs anti-BCMA-Compound 1, anti-BCMA-Compound 2, anti-BCMA-Compound 3, anti-BCMA-Compound 4, anti-BCMA-Compound 5, anti-BCMA-Compound 6, anti-BCMA-Compound 7, and anti-BCMA-Compound 8, were evaluated using the following human cancer cell lines: K562, MM.1R and NCI-H929, purchased from the American Type Culture Collection (ATCC; Manassas, VA). The cells were cultured in RPMI-1640 medium (Gibco ThermoFisher; Waltham, MA) supplemented with 10% heat-inactivated fetal bovine serum (FBS: Corning; Corning, NY, USA) and 1× penicillin-streptomycin (Corning) and maintained at 37° C. in a 5% CO2 humidified environment.
The in vitro assays were performed as follows: Tumor cells were harvested by centrifugation at 300 g for 5 minutes and plated into 96-well clear bottom white-walled plates (5,000 to 10,000 cells/well in 50 μL complete medium) and maintained at 37° C. Cells were then treated in duplicate with 50 μL of test articles prepared at 2× final concentration that were serially diluted in complete medium and incubated at 37° C. for up to 120 hrs. After treatment, inhibition of cancer cell growth was determined using the Cell Titer-Glo® 2.0 Cell Viability Assay (Promega; Madison, WI, USA) as described by the manufacturers' protocol. Luminescence was measured using a Perkin-Elmer Envision 2104 Microplate Reader (Waltham, MA).
Data were normalized to non-treated controls using Microsoft Excel (Redmond, WA, USA) and analyzed using GraphPad Prism software (version 8; La Jolla, CA, USA). Half-maximal effective concentrations (EC50) were derived from dose response curves were generated using non-linear regression analysis fit to a 4-parameter logistic equation.

[3] = test system: BCMA-negative K562; test: In vitro cytotoxicity assay (CellTiter-Glo 2.0, 384-well), Example B2; assay type: cell-based, human; settings: 5-day assays, FIG. 8
Description: (§1) The in vitro efficacies of ADCs anti-BCMA-Compound 50, anti-BCMA-Compound 51, anti-BCMA-Compound 52, and anti-BCMA-Compound 53, were compared to anti-BCMA-Compound 3. Anti-BCMA-AB1 clone was conjugated with compounds 50, 51, 52, 53 or 3 and the ADCs were evaluated using the following human cancer cell lines: BCMA-negative K562 and BCMA-positive NCI-H929, purchased from the American Type Culture Collection (ATCC; Manassas, VA).
(§2) Cell Culture Method: The cell lines were cultured in RPMI-1640 medium (Catalog #10-041-CV: Corning) supplemented with 10-20% fetal bovine serum (FBS; Catalog #MT35011CV; Corning) and 1× penicillin-streptomycin (Catalog #30-002-Cl, Corning) and maintained at 37° C. in a 5% C02 humidified environment. Viable cell counts were made by Trypan blue exclusion using a Countess or Countess II automated cell counter.
(§3) The in vitro assays were performed as follows: All cells were harvested by removal of a portion of the cell culture suspension followed by centrifugation at 300 g for 5 minutes, followed by resuspension in cell culture medium (described above in Cell Culture method), viable cell count (as described above in Cell Culture method), and then seeded into 384-well white wall clear bottom plates (Catalog #3765, Corning) at a density of 2,500 cells/well in growth media. Plates were maintained at 37° C. The outer wells of plates contained medium only and were used for background subtraction for the cell viability assay. Working solutions of test articles were prepared at 2× final concentrations with 5-fold serial dilutions in complete growth medium. Cell treatment was performed in either technical triplicates or duplicates and maintained at 37° C. for 120-hour assay. After treatment, cell viability was determined by CellTiter-Glo 2.0 assay (Catalog #G9243; Promega; Madison, WI, USA) based on the manufacturer's instructions. CellTiter Glo reagent reacts with ATP in metabolically active cells to give a luminescent readout that is directly proportional to the number of viable cells. Briefly, plates were removed from the incubator and equilibrated to room temperature before addition of CellTiter Glo reagent. Luminescence was measured using a Tecan Spark microplate reader (Tecan; Mannedorf, Switzerland).
(§4) Data Analysis: For Cytotoxicity assays, raw luminescence data was background subtracted with average luminescence from the outer wells containing medium only and normalized to untreated controls using Excel (Microsoft; Albuquerque, NM). Dose-response relationships and EC50 values were determined based on non-linear regression analysis of normalized data fit to a four-parameter logistic equation using GraphPad Prism 8.0.

[4] = test system: BCMA-positive NCI-H929; test: as above; assay type: cell-based, human; settings: for effect on NCI-H929 cell viability: 5-day assays, FIG. 8; for EC50 order of magnitude: comparison of linker chemistry among C-lock conjugations
Description: as §1, §2, §3, §4

[5] = target: T1, Human BCMA (B Cell Maturation Antigen); test: cell-based or functional assay; remark: listed apart in the source
[6] = target: T1, Human BCMA (B Cell Maturation Antigen); test: cell-based or functional assay; remark: listed apart in the source
[7] = test system: NCI-H929 tumor xenograft; test: In vivo efficacy, NCI-H929 tumor xenograft in SCID beige mice; set-up: species or system CB17 SCID beige mice; settings: Experiment IV, FIG. 6
Description: Female CB17 SCID beige mice, 6 weeks of age, were purchased from Charles River Laboratories.
Human multiple myeloma tumor cell lines NCI-H929 and OPM2 were cultured and expanded in RPMI 1640 medium supplemented with 10% FBS, 100 units/ml of penicillin and 100 μg/ml of streptomycin at 37° C. in a 5% CO2 humidified environment for a period of 2-3 weeks before harvesting for implantation. Cell viability determined by Trypan blue dye exclusion assay was >90% before implantation. 5 million of OPM2 or NCI-H929 cells in 100 μl of PBS—Matrigel 1:1 (v/v) mixture were inoculated to the right upper flank of each mouse by s.c. injection.
Tumor volume measurement was started at day 14 after tumor cell inoculation and performed twice weekly. The longest longitudinal diameter as length and the widest transverse diameter as width were measured by using a digital caliper. Tumor volume (TV) were then calculated by the formula: TV=[length×(width)^2]/2 and were analyzed in Excel.
The treatment was started when average tumor size reaches ˜400, 200 and 150 mm^3 for NCI-H929 tumor xenografts in Experiment I, III and IV, respectively, or ˜240 mm^3 for OPM2 tumor xenograft in Experiment I.
Mice were euthanized when tumor size reached 2000 mm^3.
After tumor-bearing mice were randomized, anti-BCMA antibody (BCMA-AB1 or BCMA-AB2), anti-BCMA antibody conjugate with Compound 3 (BCMA-AB1-3 or BCMA-AB2-3) or iso-type antibody conjugate with Compound 3 (iso-3) diluted in PBS were administered to mice through i.p. injections. Treatment regimens included 8 mg/kg once, 4 mg/kg Q1W×2 and 2 mg/kg biw×4 of anti-BCMA-AB1 or anti-BCMA-AB1-Compound 3 in Experiment I (FIG. 3); 2 mg/kg biw×4 and 0.67 mg/kg biw×4 of anti-BCMA-AB1 or anti-BCMA-AB1-Compound 3 in Experiment II (FIG. 4); 1, 2, 4, and 8 mg/kg once of anti-BCMA-AB1-Compound 3 or iso-3 in Experiment III (FIG. 5); and 4 mg/kg biw×4 of anti-BCMA-AB2 or 2 and 4 mg/kg biw×4 of anti-BCMA-AB2-Compound 3 in Experiment IV (FIG. 6).
Raw data of tumor measurements were analyzed in Excel. Tumor growth curves were plotted using GraphPad Prism 8.0 software and values were presented as mean t SEM.

B1: anti-BCMA-AB1-Compound 50 (antibody, human IgG1, V domains shown)
VH: EVQLVESGGGLVKPGGSLRLSCAASGFTSSTAWMSWVRQAPGKGLEWVGRIKSKSDGGTTDYAAPVKGRFTISRDDSKNTLFLQMNSLKTEDTAVYYCAKGGGTYGYWGQGTTVTVSS
VL: QSVLTQPASVSGSPGQSVTISCTGTSSAHGGHYYVSWYQQHPGKAPKLMIYDVSNRPSGVSNRFSGSKSGNTASLTISGLQAEDEADYYCGSYTSSGSYVFGTGTKLTVL
modifications: drug-linker Compound 50 on antibody cysteine thiols (C-lock linkage; positions not stated)
[1]
  EC50 of cell viability (CellTiter-Glo 2.0), NCI-H929 (BCMA-positive) cells, 120-hour assay: 762 pM

B2: anti-BCMA-AB1-Compound 52 (antibody, human IgG1, V domains shown)
VH: B1 VH
VL: B1 VL
modifications: drug-linker Compound 52 on antibody cysteine thiols (C-lock linkage; positions not stated)
[1]
  EC50 of cell viability (CellTiter-Glo 2.0), NCI-H929 (BCMA-positive) cells, 120-hour assay: 169 pM

B3: BCMA-AB1-1: Compound 1 conjugated with anti-BCMA antibody clone BCA7-2C5 (AB1); DAR 3.8 (conjugate)
VH: B1 VH
VL: B1 VL
[2]
  EC50: > 100000 pM

B4: anti-BCMA-AB1-Compound 53 (antibody, human IgG1, V domains shown)
VH: B1 VH
VL: B1 VL
modifications: drug-linker Compound 53 conjugated to the antibody (PFP linkage; residues not stated)
[1]
  EC50 of cell viability (CellTiter-Glo 2.0), NCI-H929 (BCMA-positive) cells, 120-hour assay: 398 pM

B5: ADC-50 (conjugate)
VH: B1 VH
VL: B1 VL
[3]
  activity against K562 cells: did not show activity
[4]
  effect on NCI-H929 cell viability: dose-dependently reduced
  EC50 order of magnitude: sub-nanomolar
[4]; NCI-H929
  decrease in potency, ADC-50 (C-lock linkage) relative to ADC-53 (PFP linkage): more than 2 fold
[4]; Table 7, 120-hour (5-day) assay, AB1 clone
  EC50: 760 pM

B6: ADC-52 (conjugate)
VH: B1 VH
VL: B1 VL
[3]
  activity against K562 cells: did not show activity
[4]
  effect on NCI-H929 cell viability: dose-dependently reduced
  EC50 order of magnitude: sub-nanomolar
[4]; NCI-H929
  enhanced potency compared to ADC-3: ~2 fold

B7: BCMA-AB1-2: Compound 2 conjugated with anti-BCMA antibody clone BCA7-2C5 (AB1); DAR 3.4 (conjugate)
VH: B1 VH
VL: B1 VL
[2]
  EC50: > 100000 pM

B8: anti-BCMA-AB1-Compound 3 (antibody, human IgG1, V domains shown)
VH: B1 VH
VL: B1 VL
modifications: drug-linker Compound 3 on antibody cysteine thiols (C-lock conjugation; positions not stated)
[5]
  EC50 of cell viability (Cell Titer-Glo), MM.1R (BCMA+) cells, 5-day assay: 2280 pM
  EC50 of cell viability (Cell Titer-Glo), NCI-H929 (BCMA+) cells, 5-day assay: 699 pM
[6]
  EC50 of cell viability (Cell Titer-Glo), MM.1R (BCMA+) cells, 4-day assay: 10000 pM
  EC50 of cell viability (Cell Titer-Glo), NCI-H929 (BCMA+) cells, 4-day assay: 2210 pM
[1]
  EC50 of cell viability (CellTiter-Glo 2.0), NCI-H929 (BCMA-positive) cells, 120-hour assay: 368 pM

B9: ADC-53 (conjugate)
VH: B1 VH
VL: B1 VL
[3]
  activity against K562 cells: did not show activity
[4]
  effect on NCI-H929 cell viability: dose-dependently reduced

B10: BCMA-AB2-3: Compound 3 conjugated with anti-BCMA antibody clone BCA7-2E1 (AB2) (conjugate)
VH: B1 VH
VL: B1 VL with V3A, A28D, H29G, Y33T, G59W
[7]; both regimens
  tumor regression / elimination: induced dramatic and prolonged tumor regressions and eliminated all tumors in about two weeks after initial treatments
[7]; i.p., 2 and 4 mg/kg biw×4
  tumor growth: significantly inhibited tumor growth

B11: ADC-51 (conjugate)
VH: B1 VH
VL: B1 VL
[3]
  activity against K562 cells: did not show activity
[4]
  effect on NCI-H929 cell viability: dose-dependently reduced
  EC50 order of magnitude: single digit nanomolar

B12: anti-BCMA-AB1-Compound 51 (antibody, human IgG1, V domains shown)
VH: B1 VH
VL: B1 VL
modifications: drug-linker Compound 51 on antibody cysteine thiols (C-lock linkage; positions not stated)
[1]
  EC50 of cell viability (CellTiter-Glo 2.0), NCI-H929 (BCMA-positive) cells, 120-hour assay: 1930 pM
